Blank lines part the entries; values can stand above or below the binder they belong to.
Tests used:
[1] = biological target: T1, human CD8 on CD8+ cells of human PBMCs (human, UniProt P01732 22-235); assay: phage display selection on hCD8a with EDTA elution, then clone screening
T1 construct: whole, on cells; Immunization and panning used recombinant hCD8a (Ser 22-Asp 182, His tag); The flow cytometry used native CD8 on PBMCs; also called hCD8; hCD8a
Description: Flow cytometry results of screened clones of library 2a from EDTA eluates after panning cycle IIb with triple depletion of Ca2+ independent hCD8a binders. After exclusion of dead cells and cell debris CD8+ cells were identified as a CD3+/CD4− cell population. hCD8-specific Fabs were detected by anti-polyhistidine-PE (anti-HIS-PE). Mean fluorescence intensities (MFI) of anti-HIS-PE staining were plotted to evaluate the influence of 10 mM EDTA. 75_A1 (uninoculated medium) and 75_C1 (anti-MUC1 scFv expressing clone) were negative controls, while 75_B1 (CD8 BW135/80) served as positive control. FIG. 7: MFI before and after addition of EDTA. FIG. 8: MFI ratio (−)EDTA/(+)EDTA. FIG. 9: Dot plots of clone KRR75_G1 before and after the addition of 10 mM EDTA.
Variations in panning process were tested to direct the selection towards Ca2+ dependent binding. […]
Clones generated by different selection procedures and stages were characterized upon hCD8 specificity and potential Ca2+ dependent binding. […] Supernatants of these cultures were analyzed for the presence hCD8 specific Fabs using a flow cytometric staining assay in the Ca2+ containing buffer HBSS (Hank's balanced salt solution) +0.5% BSA. […] Bound Fabs were detected via the polyhistidine tag of the Fab and an anti-polyhistidine tag-fluorochrome conjugate. […]

[2] = biological target: T1, human CD8 on CD8+ cells of human PBMCs; assay: flow cytometry on human CD8+ cells, before and after EDTA
Description: FIGS. 10, 11, and 12 show flow cytometry results of screened clones after panning cycle IIIb. Flow cytometry results of screened clones (see 4.4.2.2) of library 1a and 2a from EDTA eluates after panning cycle IIIb. After exclusion of dead cells and cell debris CD8+ cells were identified as a CD3+/CD4− cell population. hCD8 specific Fabs were detected by anti-His-PE. Mean fluorescence intensities (MFI) of anti-His-PE staining were plotted to evaluate the influence of 10 mM EDTA on staining with certain Fab clones. 77_A1 (uninoculated medium) and 77_C1 (anti-MUC1 scFv expressing clone) were negative controls, while 77_B1 (CD8 BW135/80) served as positive control for hCD8 staining. FIG. 10: MFI before and after addition of EDTA. FIG. 11: MFI ratio (−)EDTA/(+)EDTA. FIG. 12: Dot plot of clone KRR77_D1 before and after the addition of 10 mM EDTA.
Clones generated by different selection procedures and stages were characterized upon hCD8 specificity and potential Ca2+ dependent binding. Therefore, Fab expressions of single clones were performed in a microtiter plate format (150 μL). Supernatants of these cultures were analyzed for the presence hCD8 specific Fabs using a flow cytometric staining assay in the Ca2+ containing buffer HBSS (Hank's balanced salt solution) +0.5% BSA. […] Bound Fabs were detected via the polyhistidine tag of the Fab and an anti-polyhistidine tag-fluorochrome conjugate. […]

T1 sequence (P01732 22-235): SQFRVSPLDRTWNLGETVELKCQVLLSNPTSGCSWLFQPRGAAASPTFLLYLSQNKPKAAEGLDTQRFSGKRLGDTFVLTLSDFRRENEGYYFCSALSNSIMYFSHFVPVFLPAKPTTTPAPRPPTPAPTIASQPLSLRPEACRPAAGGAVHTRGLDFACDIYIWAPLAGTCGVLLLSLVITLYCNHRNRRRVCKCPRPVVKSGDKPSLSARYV

- binding result [1]: binds
B1: chimeric recombinant Fab CD8 KRR75_G1 (Fab, V domains shown)
VH: EVQLQQSGPELVKPGASVKMSCKASGYTFTDYVISWMKQRTGQGLEWIGEIYPGSGSDYYNEKFKGKATLTADKSSNTAYMQLSSLTSEDSAVYFCARWGITDYFDVWGAGTTVTVSS
VL: ETTVTQSPASLSMAIGEKVTIRCITSTDIDDDMNWYQQKPGEPPKLLISEGNTLRPGVPSRFSSSGYGTDFVFTIENMLSEDVADYYCLQSDNLPFTFGSGTKLEIK
notes: also called clone KRR75_G1

- binding result [2]: binds
B2: chimeric recombinant Fab CD8 KRR77_D1 (Fab, V domains shown)
VH: QVQLKESGPGLVQPSQSLSITCTVSGFSLTSYGVHWVRQSPGKGLEWLGVIWRGGSTDYNAAFMSRLSITKDNSKSQVFFKMNSLQADDTAIYYCAKNSITPFAYWGQGTLVTVSA
VL: B1 VL
notes: also called clone KRR77_D1

From patent publication US20140296491A1 (MILTENYI BIOTECH, published 2014)
